The text below walks through data of patent US20140193333A1 (OXFORD BIOTHERAPEUTICS, published 2014).

This assay concerns the target T1, ADP-ribosyl cyclase 2 (BST1), human, cell-surface (human, UniProt Q10588 33-293).
T1 construct: Endogenous BST1 on A549, H226 and U937 cells and on blood cells of AML patients; also called CD157; Bone marrow stromal antigen 1
T1 sequence: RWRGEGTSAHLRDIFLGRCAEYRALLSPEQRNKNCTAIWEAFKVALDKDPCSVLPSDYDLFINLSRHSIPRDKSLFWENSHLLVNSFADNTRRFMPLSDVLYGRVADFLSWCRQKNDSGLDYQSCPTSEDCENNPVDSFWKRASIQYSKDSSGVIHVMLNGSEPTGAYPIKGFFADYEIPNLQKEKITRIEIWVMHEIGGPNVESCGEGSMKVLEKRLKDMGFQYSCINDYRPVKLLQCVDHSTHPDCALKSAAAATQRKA
Description: flow cytometry on BST1-expressing A549 and H226 cells. Here is the method: The specificity of antibodies against the BST1 selected in Example 6 was also tested by flow cytometry. To test the ability of the antibodies to bind to the cell surface BST1 protein, the antibodies were incubated with the BST1-expressing cells, H226 (human lung squamous carcinoma) and A549 (human lung adenocarinoma). Cells were washed in FACS buffer (DPBS, 2% FBS), centrifuged and resuspended in 100 μl of the diluted primary BST1 antibody (also diluted in FACS buffer). The antibody-A549 complex and antibody-H226 complex were incubated on ice for 60 min and then washed twice with FACS buffer as described above. The cell-antibody pellet was resuspended in 100 μl of the diluted secondary antibody (also diluted in FACS buffer) and incubated on ice for 60 min on ice. The pellet was washed as before and resuspended in 200 μl FACS buffer. The samples were loaded onto the BD FACScanto II flow sytometer and the data analyzed using the BD FACSdiva software. The binding of BST1_[…] and BST1_A2 to BST1 expressed on A549 and H226 cells were analysed using flow cytometry.

B1: BST1_A1 anti-BST1 monoclonal antibody (Fab, V domains shown)
VH: QVKLQQSGAELVRPGSSVKISCKASGYAFSNSWINWVKQRPGQGLEWIGQIYPGDYDTNYNGKFKGKATLTADYSSSTAYMQLNSLTSEDSAVYFCARGGSIYYGNLGFFDVWGAGTTVTVSS
VL: EMVLTQSPAIMSTSLGERVTMTCTASSRVSSSYLHWYQQKPGSSPKLWIYSTSNLASGVPARFSGSGSGTSYSLTISSMEAEDAATYYCHQYHRSPYTFGGGTKLEIKR
With B1, the binding result is “binds”.
